Laboratory results: patent US20240316154A1 (Eli Lilly, published 2024)
Positions count from the first letter of the chain named. Names and notes keep the numbering of the source. Like-named read-outs stand apart in the source and are kept apart here. Blank lines part the entries; values can stand above or below the binder they belong to.

Legend:
[1] = target: T1, human CNTF receptor (CNTFR) on IMR-32 cells (human, UniProt P26992 23-342); assay: cell-based or functional assay
T1 sequence (looked up): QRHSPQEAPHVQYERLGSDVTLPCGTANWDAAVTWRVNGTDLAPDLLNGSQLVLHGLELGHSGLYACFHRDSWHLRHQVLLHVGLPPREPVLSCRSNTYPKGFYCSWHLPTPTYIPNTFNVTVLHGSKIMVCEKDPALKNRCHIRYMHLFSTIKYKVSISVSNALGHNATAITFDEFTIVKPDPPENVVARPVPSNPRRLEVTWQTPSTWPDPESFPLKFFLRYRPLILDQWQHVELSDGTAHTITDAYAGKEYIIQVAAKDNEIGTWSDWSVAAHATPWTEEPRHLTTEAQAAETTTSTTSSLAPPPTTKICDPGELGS

Mouse serum albumin [2] = target: T2, Mouse serum albumin (mouse, UniProt P07724 25-608); assay: SPR, SA on chip, 1:1 fit, 25 C
T2 construct: bought; immobilised on a CM5 chip by amine coupling; also called Mouse SA
Method: (§1) Human SA is obtained from Sigma Aldrich (Cat. No. A8763). […] Mouse SA is obtained from Sigma Aldrich (Cat. No. A3139). Rat SA is obtained from Sigma Aldrich (Cat. No. A4538). Pig SA is obtained from Sigma Aldrich (Cat. No. A4414). […] Cow SA is obtained from Sigma Aldrich (Cat. No. A7030). […] Excess reactive groups on the surfaces (flow cell 1 and 2) are deactivated by injecting 70 μl of 1 M Ethanolamine hydrochloride-NaOH pH 8.5.
(§2) 180 μl of sample are individually injected sequentially across the immobilized SAs on the chip's surface and dissociated for 600 sec at 60 μl/min flow rate at 25° C.

[3] = target: T3, Cynomolgus monkey serum albumin (cynomolgus monkey, UniProt A2V9Z4 25-608); assay: SPR, SA on chip, 1:1 fit, 25 C
T3 construct: bought; immobilised on a CM5 chip by amine coupling; also called Cyno SA
Method: as §1, §2

Cow serum albumin [4] = target: T4, Cow serum albumin (cow, UniProt P02769 25-607); assay: SPR, SA on chip, 1:1 fit, 25 C
T4 construct: bought; immobilised on a CM5 chip by amine coupling; also called Cow SA
Method: as §1, §2

Human serum albumin [5] = target: T5, Human serum albumin (human, UniProt P02768 25-609); assay: SPR, SA on chip, 1:1 fit, 25 C
T5 construct: bought; immobilised on a CM5 chip by amine coupling; also called Human SA
Method: as §1, §2

Pig serum albumin [6] = target: T6, Pig serum albumin (pig, UniProt P08835 25-607); assay: SPR, SA on chip, 1:1 fit, 25 C
T6 construct: bought; immobilised on a CM5 chip by amine coupling; also called Pig SA
Method: as §1, §2

Dog serum albumin [7] = target: T7, Dog serum albumin (dog, UniProt P49822 25-608); assay: SPR, SA on chip, 1:1 fit, 25 C
T7 construct: bought; immobilised on a CM5 chip by amine coupling; also called Dog SA
Method: as §1, §2

Rat serum albumin [8] = target: T8, Rat serum albumin (rat, UniProt P02770 25-608); assay: SPR, SA on chip, 1:1 fit, 25 C
T8 construct: bought; immobilised on a CM5 chip by amine coupling; also called Rat SA
Method: as §1, §2

Rabbit serum albumin [9] = target: T9, Rabbit serum albumin (rabbit, UniProt P49065 25-608); assay: SPR, SA on chip, 25 C
T9 construct: bought; immobilised on a CM5 chip by amine coupling; also called Rabbit SA
Method: as §1, §2

Mouse serum albumin [10] = target: T2, Mouse serum albumin; assay: SPR, SA on chip, VHH 300 nM, 25 C
Method: (§3) Immobilization of SA to a Series S Sensor Chip CM5 surface is performed according to the manufacturer's instructions (amine coupling kit BR-1000-50). […] Human SA is obtained from Sigma Aldrich (St. Louis, MO; Cat. No. A8763). […] Mouse SA is obtained from Sigma Aldrich (Cat. No. A3559). Rat SA is obtained from Sigma Aldrich (Cat. No. A4538). Pig SA is obtained from Sigma Aldrich (Cat. No. A4414). […] Cow SA is obtained from Sigma Aldrich (Cat. No. A7030). The various SAs are covalently immobilized through free amines onto a carboxymethyl dextran-coated sensor chip CM5 targeting a surface density of average approximately 77 (58-98) RU. Excess reactive groups on the surfaces (flow cell 1 and 2) are deactivated by injecting 70 μL of 1 M ethanolamine hydrochloride-NaOH, pH 8.5, at 10 μL/min.
(§4) VHH moieties are diluted in HBS-EP+buffer (10 mM HEPES, pH 7.6, 150 mM NaCl, 3 mM EDTA, and 0.05% Polysorbate 20) at concentrations of 300 nM. 150 μL of sample is individually injected sequentially across the immobilized SAs surface and is dissociated for 600 sec at a flow rate of 50 L/min at 25 C. […] The resulting sensorgrams are analyzed using Biacore 8K Insight Evaluation Software (version 2.0.15.12933) to calculate the dissociation rate (kd).

[11] = target: T3, Cynomolgus monkey serum albumin; assay: SPR, SA on chip, VHH 300 nM, 25 C
Method: as §3, §4

Cow serum albumin [12] = target: T4, Cow serum albumin; assay: SPR, SA on chip, VHH 300 nM, 25 C
Method: as §3, §4

Human serum albumin [13] = target: T5, Human serum albumin; assay: SPR, SA on chip, VHH 300 nM, 25 C
Method: as §3, §4

Pig serum albumin [14] = target: T6, Pig serum albumin; assay: SPR, SA on chip, VHH 300 nM, 25 C
Method: as §3, §4

Dog serum albumin [15] = target: T7, Dog serum albumin; assay: SPR, SA on chip, VHH 300 nM, 25 C
Method: as §3, §4

Rat serum albumin [16] = target: T8, Rat serum albumin; assay: SPR, SA on chip, VHH 300 nM, 25 C
Method: as §3, §4

Rabbit serum albumin [17] = target: T9, Rabbit serum albumin; assay: SPR, SA on chip, 25 C; remark: listed apart in the source
Method: as §1, §2

Mouse serum albumin [18] = target: T2, Mouse serum albumin; assay: SPR, SA on chip, 1:1 fit, 25 C; remark: listed apart in the source
Method: as §1, §2

[19] = target: T3, Cynomolgus monkey serum albumin; assay: SPR, SA on chip, 1:1 fit, 25 C; remark: listed apart in the source
Method: as §1, §2

Cow serum albumin [20] = target: T4, Cow serum albumin; assay: SPR, SA on chip, 1:1 fit, 25 C; remark: listed apart in the source
Method: as §1, §2

Human serum albumin [21] = target: T5, Human serum albumin; assay: SPR, SA on chip, 1:1 fit, 25 C; remark: listed apart in the source
Method: as §1, §2

Pig serum albumin [22] = target: T6, Pig serum albumin; assay: SPR, SA on chip, 1:1 fit, 25 C; remark: listed apart in the source
Method: as §1, §2

Dog serum albumin [23] = target: T7, Dog serum albumin; assay: SPR, SA on chip, 1:1 fit, 25 C; remark: listed apart in the source
Method: as §1, §2

Rat serum albumin [24] = target: T8, Rat serum albumin; assay: SPR, SA on chip, 1:1 fit, 25 C; remark: listed apart in the source
Method: as §1, §2

hCNTFR EC50 pM GeoMean (pSTAT3 in IMR-32 cells) [1]: 8.39 pM | Kd (Mouse serum albumin [2]): 8.8 nM | koff (Mouse serum albumin [2]): 0.0042 s⁻¹ | kon (Mouse serum albumin [2]): 480000 M⁻¹ s⁻¹ | Kd [3]: 1.2 nM | koff [3]: 0.0006 s⁻¹ | kon [3]: 500000 M⁻¹ s⁻¹ | Kd (Cow serum albumin [4]): 110 nM | koff (Cow serum albumin [4]): 0.052 s⁻¹ | kon (Cow serum albumin [4]): 460000 M⁻¹ s⁻¹ | Kd (Human serum albumin [5]): 0.58 nM | koff (Human serum albumin [5]): 0.00025 s⁻¹ | kon (Human serum albumin [5]): 430000 M⁻¹ s⁻¹ | Kd (Pig serum albumin [6]): 19 nM | koff (Pig serum albumin [6]): 0.0057 s⁻¹ | kon (Pig serum albumin [6]): 300000 M⁻¹ s⁻¹ | Kd (Dog serum albumin [7]): 3.7 nM | koff (Dog serum albumin [7]): 0.0017 s⁻¹ | kon (Dog serum albumin [7]): 460000 M⁻¹ s⁻¹ | Kd (Rat serum albumin [8]): 6.1 nM | koff (Rat serum albumin [8]): 0.003 s⁻¹ | kon (Rat serum albumin [8]): 490000 M⁻¹ s⁻¹ | binding result (Rabbit serum albumin [9]): no binding (tested: up to 1000 nM)
B1: VHH-based fusion of Example 2, VHH fusion 2 (MC6.1C22-(G4Q)5-CNTF) (other)
chain: EVQLLESGGGLVQPGGSLRLSCAASGRYIDETAVAWFRQAPGKEREFVAGIGGGVDITYYADSVKGRFTISRDNSKNTLYLQMNSLRPEDTAVYYCAARPGRPLITSKVADLYPYWGQGTLVTVSSGGGGQGGGGQGGGGQGGGGQGGGGQMAFTEHSPLTPHRRDLASRSIWLARKIRSDLTALTESYVKHQGLNKNINLDSADGMPVASTDRWSELTEAERLQENLQAYRTFHVLLARLLEDQQVHFTPTEGDFHQAIHTLLLQVAAFAYQIEELMILLEYKIPRNEADGMPINVGDGGLFEKKLWGLKVLQELSQWTVRSIHDLRFISSHQTG
notes: also called Compound 2; VHH-CNTF fusion

koff (Mouse serum albumin [10]): 0.0032 s⁻¹ | koff [11]: 0.003 s⁻¹ | koff (Cow serum albumin [12]): 0.015 s⁻¹ | koff (Human serum albumin [13]): 0.001 s⁻¹ | koff (Pig serum albumin [14]): 0.0092 s⁻¹ | koff (Dog serum albumin [15]): 0.0022 s⁻¹ | koff (Rat serum albumin [16]): 0.0075 s⁻¹
B2: VHH moiety 8 (MC6.1C22-G26Y) (VHH)
VHH: EVQLLESGGGLVQPGGSLRLSCAASYRYIDETAVAWFRQAPGKEREFVAGIGGGVDITYYADSVKGRFTISRDNSKNTLYLQMNSLRPEDTAVYYCAARPGRPLITSKVADLYPYWGQGTLVTVSS

koff (Mouse serum albumin [10]): 0.01 s⁻¹ | koff [11]: 0.0022 s⁻¹ | koff (Cow serum albumin [12]): 0.015 s⁻¹ | koff (Human serum albumin [13]): 0.0015 s⁻¹ | koff (Pig serum albumin [14]): 0.013 s⁻¹ | koff (Dog serum albumin [15]): 0.0082 s⁻¹ | koff (Rat serum albumin [16]): 0.0081 s⁻¹
B3: VHH moiety 17 (MC6.1C22-R102K) (VHH)
VHH: B2 VHH with Y26G, R102K

binding result (Rabbit serum albumin [17]): no binding (tested: up to 1000 nM) | hCNTFR EC50 pM GeoMean (pSTAT3 in IMR-32 cells) [1]: 7.09 pM | Kd (Mouse serum albumin [18]): 100 nM | koff (Mouse serum albumin [18]): 0.0082 s⁻¹ | kon (Mouse serum albumin [18]): 81000 M⁻¹ s⁻¹ | Kd [19]: 13 nM | koff [19]: 0.00086 s⁻¹ | kon [19]: 68000 M⁻¹ s⁻¹ | Kd (Cow serum albumin [20]): 820 nM | koff (Cow serum albumin [20]): 0.074 s⁻¹ | kon (Cow serum albumin [20]): 91000 M⁻¹ s⁻¹ | Kd (Human serum albumin [21]): 3.2 nM | koff (Human serum albumin [21]): 0.00024 s⁻¹ | kon (Human serum albumin [21]): 76000 M⁻¹ s⁻¹ | Kd (Pig serum albumin [22]): 190 nM | koff (Pig serum albumin [22]): 0.011 s⁻¹ | kon (Pig serum albumin [22]): 58000 M⁻¹ s⁻¹ | Kd (Dog serum albumin [23]): 40 nM | koff (Dog serum albumin [23]): 0.0032 s⁻¹ | kon (Dog serum albumin [23]): 79000 M⁻¹ s⁻¹ | Kd (Rat serum albumin [24]): 83 nM | koff (Rat serum albumin [24]): 0.0063 s⁻¹ | kon (Rat serum albumin [24]): 75000 M⁻¹ s⁻¹
B4: VHH-based fusion of Example 1, VHH fusion 1 (CNTF-(G4Q)5-MC6.1C22.43) (other)
chain: MAFTEHSPLTPHRRDLASRSIWLARKIRSDLTALTESYVKHQGLNKNINLDSADGMPVASTDRWSELTEAERLQENLQAYRTFHVLLARLLEDQQVHFTPTEGDFHQAIHTLLLQVAAFAYQIEELMILLEYKIPRNEADGMPINVGDGGLFEKKLWGLKVLQELSQWTVRSIHDLRFISSHQTGGGGGQGGGGQGGGGQGGGGQGGGGQEVQLLESGGGLVQPGGSLRLSCAASGRYIDETAVAWFRQAPGKEREFVAGIGGGVDITYYADSVKGRFTISRDNSKNTLYLQMNSLRPEDTAVYYCAARPGRPLITSKVADLYPYWGQGTLVTVSSPP
notes: also called Compound 1; CNTF-VHH fusion
